Source: patent US11851478

B1: CHKV-35 (antibody, V domains shown)
VH: EVQLVESGGGLVPPGGSLRVSCAASGFTLRSYVMAWVRQAPGKGLEWVSGISGDGDHTYYADSVKGRFTISRDNSKNTLYLQMHSLRAEDTALYYCVKDWGIRGIYYPSGMDVWGQGTTVIVSS
VL: SLELAQPPSVSVSPGQTARITCSGDGLPQAYAYWYQKKPGQAPVPLIYKDTERPSGIPERFSGSSSGTTVTLTISGVQAEDEADYYCQSADSIGTNVIFGGGTKLTVL
B2: CHKV-53 (antibody, V domains shown)
VH: QLQLQESGPGLVKPSETLSLTCTVSGGSISSTSHYWGWIRQPPGKGLEWIGNIYYSGSTYYKSSLKSRVAISVDTSKNQFSLKLSSVTAADTAVYFCARVVVGGYYDNRGYYRGPPTPLYYFDYWGQGTLVTVSS
VL: DIQMTQSPSSVSASVGDRVTISCRASPGISTWLAWYQQKPGKAPKLLIYAVSSLQSGVPSRFSGSGSGTDFTLTISSLQPEDFATYYCQQANSLSWTFGQGTKVEIK
B3: CHKV-48 (antibody, V domains shown)
VH: QVQLQESGPGLVKPSQTLSLTCAVSGGSISSGGYSWSWIRQPPGKGLEWIGYIYYSGSTYYNPSLKSRLTISMDTSKNHFSLKLSSVTAADTAVYYCATDYCSSTSCNTGAPVNWGQGTLVTVSS
VL: DIQLTQSPSFLSASVGDRVTITCRASQGISSYLAWYQQKPGKAPKLLINAASTLQSGVPSRFSGSGSGTEFTLTISSLQPEDFATYYCQQFNAYPYTFGQGTKLEIK
B4: CHKV-29 (antibody, V domains shown)
VH: EVQLVESGGVVVQPGGSLRLSCAASGFNFDDYTMHWVRQAPGKGLEWVSLITWDGLSTYYADSMKGRFTISRDNSKDSLYLQMDSLRTEDTAFYYCVRDMGPGAVHFYFYGMDVWGQGTLVTVSS
VL: QSALTQPASVSGSPGQSITISCTGTSSDVGNYNLVSWYQQHPGKVPKLIIYEVSKRPSGISKRFSASKSGNTASLTISGLQAEDEADYYCCSYAGSSGVFGAGTKLTVL
B5: CHKV-27 (antibody, V domains shown)
VH: QVQLVQSGAEVKKPGASVKVSCKPSGYNFIDYAMHWVRQAPGQRLEWMGWINAANDNREYSQKFQGRVTLTRDTSATTAYMELSSLTFEDTAVYYCARDRGTMVRGVGGWFDPWGQGTLVTVSS
VL: SYVLTQPPSVSVAPGETARITCGGNNIGSKSVHWYQQKPVQAPVVVVYDDSDRPSGIPERFSGSNSGNTATLTISRVEAGDEADYYCQVWDSSSNHPVFGGGTKVAVL
B6: CHKV-31 (antibody, V domains shown)
VH: EVQLVESGGGLVQPGGSLRLSCAASGFTFSNYAMSWVRQAPGKGLEWVSGISGSGRTTYYTDSVKGRFNISRDNTKNTLFLQMNSLRAEDTAVYYCVKDRAGWFGNYFDYWGQGTLVTVSS
VL: DIQMTQSPSSLSASVGDRVTITCRASQGISNYLAWFQQKPGKAPKSLIYAASSLQSGVPSKFSGSRSGTNFTLTISSLQPEDFATYYCQQYNTYPPTFGQGTTVEIK
B7: CHKV-32 (antibody, V domains shown)
VH: QVQLVQSGAEVKKPGASVKVSCKASGYTFTTFAMHWVRQAPGQGLECMGWINTANGYTKYSQKFQGRVTITSDTSASTASMELSSLTSKDTAVYYCARVQDFGHYEGGYGYWGQGTLVTVSS
VL: QSVLTQPPSVSGAPGQRVIISCTGSSSNIGAGYDVHWYQQLPGTAPKLLIYGNSYRPSGVPDRFSGSRSGTSASLAITGLQAEDEADYYCQSHDSSLNDFNVFGSGTKVTVL
B8: CHKV-50 (antibody, V domains shown)
VH: EVQLVESGGGLVQPGRSLRLSCAASGFTFDDYAMHWVRQAPGKGLEWVSGISWNSGFIGYADSVKGRFTISRDNAKNSLYLQMNSLRAEDTALYYCAKDLGRAYSSGWYLFDYWGQGTLVTVSS
VL: SYVLTQPPSVSVAPGKTARITCGGNNIGSKSVHWYQQLPGQAPVLVVYDDSDRPSGIPERFSGSNSGYTATLIISRVEAGDEADYYCQVWDSTSDHACVFGPGTKVTVL
B9: CHKV-24 (antibody, V domains shown)
VH: QVQLVESGGGVVQPGKSLRLSCAASGFTFRNYGMHWVRQAPGKGLDWVALISYDGTHKYYKDSLKGRFTISRDNFQNTVDLQINSLRPDDTAVYYCAKELATSGVVEPLDSWGQGTLVTVSS
VL: EIVLTQSPGTLSLSPGERATLSCRASQSLVSSYFGWYQQKRGQSPRLLIYAASTRATGIPDRFSGSGSGTDFTLTISRLEPEDFAVYYCQQYGNTPFTFGGGTKVEIK

Molecular target: Chikungunya virus (CHIKV), infectious virus of the focus reduction neutralization test (Chikungunya virus)
Test: cell-based or functional assay

| Binder | IC50 FRNT* (ng/mL) against CHIKV [ng/mL] |
| --- | --- |
| B1 | 11 |
| B2 | 319 |
| B3 | 37 |
| B4 | 86 |
| B5 | 17 |
| B6 | 684 |
| B7 | 81 |
| B8 | 2270 |
| B9 | 4 |
